Source: US20210332131A1 (TIGATX, published 2021)

T1: CD20 (UniProt P11836 1-297, limits assumed)
T1 construct: whole, on cells
T1 sequence (looked up): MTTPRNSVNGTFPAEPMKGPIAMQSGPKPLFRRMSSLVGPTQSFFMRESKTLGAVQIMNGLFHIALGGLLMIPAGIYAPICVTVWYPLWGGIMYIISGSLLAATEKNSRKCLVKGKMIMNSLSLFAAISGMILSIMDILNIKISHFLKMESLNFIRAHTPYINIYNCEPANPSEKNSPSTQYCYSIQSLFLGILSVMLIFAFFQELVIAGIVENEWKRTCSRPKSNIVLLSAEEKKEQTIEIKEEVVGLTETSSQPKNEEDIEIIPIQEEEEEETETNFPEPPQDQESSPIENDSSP

B1: DVD-IgA scFv_LC bispecific antibody #5 (5A3M5-scFv: Obi_LC) (bispecific antibody)
heavy: QVQLVQSGAEVKKPGSSVKVSCKASGYAFSYSWINWVRQAPGQGLEWMGRIFPGDGDTDYNGKFKGRVTITADKSTSTAYMELSSLRSEDTAVYYCARNVFDGYWLVYWGQGTLVTVSSASPTSPKVFPLSLDSTPQDGNVVVACLVQGFFPQEPLSVTWSESGQGVTARNFPPSQDASGDLYTTSSQLTLPATQCPDGKSVTCHVKHYTNPSQDVTVPCRVPPPPPCCHPRLSLHRPALEDLLLGSEANLTCTLTGLRDASGATFTWTPSSGKSAVQGPPERDLCGCYSVSSVLPGSAQPWNHGETFTCTAAHPELKTPLTATLSKSGNTFRPEVHLLPPPSEELALNELVTLTCLARGFSPKDVLVRWLQGSQELPREKYLTWASRQEPSQGTTTFAVTSILRVAAEDWKKGDTFSCMVGHEALPLAFTQKTIDRLAGK
light: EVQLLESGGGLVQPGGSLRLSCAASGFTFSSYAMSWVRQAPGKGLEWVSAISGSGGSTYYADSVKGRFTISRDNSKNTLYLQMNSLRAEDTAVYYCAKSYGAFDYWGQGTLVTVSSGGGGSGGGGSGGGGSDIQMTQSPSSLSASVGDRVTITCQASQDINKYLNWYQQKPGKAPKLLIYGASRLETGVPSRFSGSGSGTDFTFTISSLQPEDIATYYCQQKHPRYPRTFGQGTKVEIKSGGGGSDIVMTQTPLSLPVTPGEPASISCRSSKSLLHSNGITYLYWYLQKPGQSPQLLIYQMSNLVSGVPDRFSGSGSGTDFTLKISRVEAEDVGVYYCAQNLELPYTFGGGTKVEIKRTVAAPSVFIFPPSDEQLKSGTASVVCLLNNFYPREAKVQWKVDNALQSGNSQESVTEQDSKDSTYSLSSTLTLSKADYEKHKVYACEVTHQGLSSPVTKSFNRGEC
notes: Tetravalent homodimer; 5A3M5 (CD47) scFv on the Obinituzumab light chain
B2: 2.3D11-IgA2 (antibody, V domains shown)
VH: QVQLQESGPGLVKPSGTLSLTCAVSGVSIRSINWWNWVRQPPGKGLEWIGEIYHSGSTNYNPSLKSRVTISVDKSKNQFSLKLNSVTAADTAVYYCARDGGIAVTDYYYYGLDVWGQGTTVTVSS
VL: EIVLTQSPATLSLSPGERATLSCRASESVSSNLAWYQQKPGQAPRLLIYGAFNRATGIPARFSGSGSGTDFTLTISSLEPEDFAVYYCQQRSDWFTFGGGTKVEIK
notes: May be the same as IgA3.0-2.3D11; also called bivalent monospecific antibody 2.3D11; anti-CD47 antibody 2.3D11
B3: DVD-IgA bispecific antibody #1 (5A3M5-Obi) (bispecific antibody)
heavy: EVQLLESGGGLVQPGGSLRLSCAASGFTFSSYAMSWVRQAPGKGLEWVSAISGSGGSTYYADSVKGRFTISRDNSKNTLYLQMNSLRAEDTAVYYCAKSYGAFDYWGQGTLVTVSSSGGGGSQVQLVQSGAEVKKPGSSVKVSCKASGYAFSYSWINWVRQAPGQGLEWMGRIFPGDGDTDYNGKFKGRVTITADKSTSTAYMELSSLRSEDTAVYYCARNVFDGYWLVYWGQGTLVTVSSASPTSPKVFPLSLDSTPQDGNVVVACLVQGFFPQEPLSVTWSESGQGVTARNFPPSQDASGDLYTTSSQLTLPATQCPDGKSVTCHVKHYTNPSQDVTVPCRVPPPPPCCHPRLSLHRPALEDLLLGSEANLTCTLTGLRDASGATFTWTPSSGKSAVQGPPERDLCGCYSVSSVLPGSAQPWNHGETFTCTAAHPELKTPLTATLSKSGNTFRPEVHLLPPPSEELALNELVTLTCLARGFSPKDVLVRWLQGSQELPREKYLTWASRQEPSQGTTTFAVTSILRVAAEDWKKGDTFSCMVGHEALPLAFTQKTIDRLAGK
light: DIQMTQSPSSLSASVGDRVTITCQASQDINKYLNWYQQKPGKAPKLLIYGASRLETGVPSRFSGSGSGTDFTFTISSLQPEDIATYYCQQKHPRYPRTFGQGTKVEIKSGGGGSDIVMTQTPLSLPVTPGEPASISCRSSKSLLHSNGITYLYWYLQKPGQSPQLLIYQMSNLVSGVPDRFSGSGSGTDFTLKISRVEAEDVGVYYCAQNLELPYTFGGGTKVEIKRTVAAPSVFIFPPSDEQLKSGTASVVCLLNNFYPREAKVQWKVDNALQSGNSQESVTEQDSKDSTYSLSSTLTLSKADYEKHKVYACEVTHQGLSSPVTKSFNRGEC
notes: Tetravalent homodimer, outer domain CD47 (5A3M5), inner domain CD20 (Obinituzumab)
B4: DVD-IgA scFv_HC bispecific antibody #4 (Obi-scFv: 2.3D11_HC) (bispecific antibody)
heavy: QVQLVQSGAEVKKPGSSVKVSCKASGYAFSYSWINWVRQAPGQGLEWMGRIFPGDGDTDYNGKFKGRVTITADKSTSTAYMELSSLRSEDTAVYYCARNVFDGYWLVYWGQGTLVTVSSGGGGSGGGGSGGGGSDIVMTQTPLSLPVTPGEPASISCRSSKSLLHSNGITYLYWYLQKPGQSPQLLIYQMSNLVSGVPDRFSGSGSGTDFTLKISRVEAEDVGVYYCAQNLELPYTFGGGTKVEIKSGGGGSQVQLQESGPGLVKPSGTLSLTCAVSGVSIRSINWWNWVRQPPGKGLEWIGEIYHSGSTNYNPSLKSRVTISVDKSKNQFSLKLNSVTAADTAVYYCARDGGIAVTDYYYYGLDVWGQGTTVTVSSASPTSPKVFPLSLDSTPQDGNVVVACLVQGFFPQEPLSVTWSESGQGVTARNFPPSQDASGDLYTTSSQLTLPATQCPDGKSVTCHVKHYTNPSQDVTVPCRVPPPPPCCHPRLSLHRPALEDLLLGSEANLTCTLTGLRDASGATFTWTPSSGKSAVQGPPERDLCGCYSVSSVLPGSAQPWNHGETFTCTAAHPELKTPLTATLSKSGNTFRPEVHLLPPPSEELALNELVTLTCLARGFSPKDVLVRWLQGSQELPREKYLTWASRQEPSQGTTTFAVTSILRVAAEDWKKGDTFSCMVGHEALPLAFTQKTIDRLAGK
light: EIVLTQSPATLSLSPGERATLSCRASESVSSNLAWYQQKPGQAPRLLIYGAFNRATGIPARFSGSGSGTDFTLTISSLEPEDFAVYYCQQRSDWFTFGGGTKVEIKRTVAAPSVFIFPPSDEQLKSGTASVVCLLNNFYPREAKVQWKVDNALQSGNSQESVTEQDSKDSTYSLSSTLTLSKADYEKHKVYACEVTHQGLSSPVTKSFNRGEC
notes: Tetravalent homodimer; Obinituzumab (CD20) scFv on the 2.3D11 heavy chain; Tested as raw HEK293F supernatant; also called bispecific #4
B5: Obi-IgA3.0 (antibody, V domains shown)
VH: QVQLVQSGAEVKKPGSSVKVSCKASGYAFSYSWINWVRQAPGQGLEWMGRIFPGDGDTDYNGKFKGRVTITADKSTSTAYMELSSLRSEDTAVYYCARNVFDGYWLVYWGQGTLVTVSS
VL: DIVMTQTPLSLPVTPGEPASISCRSSKSLLHSNGITYLYWYLQKPGQSPQLLIYQMSNLVSGVPDRFSGSGSGTDFTLKISRVEAEDVGVYYCAQNLELPYTFGGGTKVEIKR
notes: Monospecific anti-CD20 IgA3.0 control; also called IgA3.0-Obi; anti-CD20 Obi antibody
B6: DVD-IgA bispecific antibody #2 (Obi-2.3D11) (bispecific antibody)
heavy: QVQLVQSGAEVKKPGSSVKVSCKASGYAFSYSWINWVRQAPGQGLEWMGRIFPGDGDTDYNGKFKGRVTITADKSTSTAYMELSSLRSEDTAVYYCARNVFDGYWLVYWGQGTLVTVSSSGGGGSQVQLQESGPGLVKPSGTLSLTCAVSGVSIRSINWWNWVRQPPGKGLEWIGEIYHSGSTNYNPSLKSRVTISVDKSKNQFSLKLNSVTAADTAVYYCARDGGIAVTDYYYYGLDVWGQGTTVTVSSASPTSPKVFPLSLDSTPQDGNVVVACLVQGFFPQEPLSVTWSESGQGVTARNFPPSQDASGDLYTTSSQLTLPATQCPDGKSVTCHVKHYTNPSQDVTVPCRVPPPPPCCHPRLSLHRPALEDLLLGSEANLTCTLTGLRDASGATFTWTPSSGKSAVQGPPERDLCGCYSVSSVLPGSAQPWNHGETFTCTAAHPELKTPLTATLSKSGNTFRPEVHLLPPPSEELALNELVTLTCLARGFSPKDVLVRWLQGSQELPREKYLTWASRQEPSQGTTTFAVTSILRVAAEDWKKGDTFSCMVGHEALPLAFTQKTIDRLAGK
light: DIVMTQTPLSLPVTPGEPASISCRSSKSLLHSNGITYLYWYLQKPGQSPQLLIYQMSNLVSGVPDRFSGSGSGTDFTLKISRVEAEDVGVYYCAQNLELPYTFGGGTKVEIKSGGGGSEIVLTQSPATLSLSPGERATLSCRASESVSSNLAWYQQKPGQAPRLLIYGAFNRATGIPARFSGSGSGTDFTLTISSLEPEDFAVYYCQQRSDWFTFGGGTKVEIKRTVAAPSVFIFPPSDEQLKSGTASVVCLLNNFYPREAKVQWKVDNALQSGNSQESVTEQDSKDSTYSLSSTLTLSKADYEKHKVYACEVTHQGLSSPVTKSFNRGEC
notes: Tetravalent homodimer, outer domain CD20 (Obinituzumab), inner domain CD47 (2.3D11); also called DVD-IgA Obi-2.3D11
B7: DVD-IgA scFv_HC bispecific antibody #3 (5A3M5-scFv: Obi_HC) (bispecific antibody)
heavy: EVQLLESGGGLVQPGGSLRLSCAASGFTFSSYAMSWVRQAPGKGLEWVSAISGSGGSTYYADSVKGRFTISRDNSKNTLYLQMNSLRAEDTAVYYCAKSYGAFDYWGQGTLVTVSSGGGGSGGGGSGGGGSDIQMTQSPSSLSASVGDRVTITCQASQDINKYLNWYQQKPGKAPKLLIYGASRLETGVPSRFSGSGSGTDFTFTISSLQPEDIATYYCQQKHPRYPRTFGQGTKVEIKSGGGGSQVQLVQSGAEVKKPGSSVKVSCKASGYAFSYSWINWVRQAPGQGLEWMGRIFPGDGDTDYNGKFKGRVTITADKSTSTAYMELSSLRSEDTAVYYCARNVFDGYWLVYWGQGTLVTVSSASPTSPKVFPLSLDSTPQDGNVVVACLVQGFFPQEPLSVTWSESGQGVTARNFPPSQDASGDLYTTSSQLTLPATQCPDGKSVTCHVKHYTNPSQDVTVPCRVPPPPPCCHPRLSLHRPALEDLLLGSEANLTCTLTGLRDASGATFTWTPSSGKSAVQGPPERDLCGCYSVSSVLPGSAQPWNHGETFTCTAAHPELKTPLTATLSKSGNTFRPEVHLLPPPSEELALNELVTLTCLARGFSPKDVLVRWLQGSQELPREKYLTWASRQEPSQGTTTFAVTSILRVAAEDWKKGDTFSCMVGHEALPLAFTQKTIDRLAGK
light: DIVMTQTPLSLPVTPGEPASISCRSSKSLLHSNGITYLYWYLQKPGQSPQLLIYQMSNLVSGVPDRFSGSGSGTDFTLKISRVEAEDVGVYYCAQNLELPYTFGGGTKVEIKRTVAAPSVFIFPPSDEQLKSGTASVVCLLNNFYPREAKVQWKVDNALQSGNSQESVTEQDSKDSTYSLSSTLTLSKADYEKHKVYACEVTHQGLSSPVTKSFNRGEC
notes: Tetravalent homodimer; 5A3M5 (CD47) scFv on the Obinituzumab heavy chain; Tested as raw HEK293F supernatant
B8: DVD-IgA scFv_LC bispecific antibody #6 (Obi-scFv: 2.3D11_LC) (bispecific antibody)
heavy: QVQLQESGPGLVKPSGTLSLTCAVSGVSIRSINWWNWVRQPPGKGLEWIGEIYHSGSTNYNPSLKSRVTISVDKSKNQFSLKLNSVTAADTAVYYCARDGGIAVTDYYYYGLDVWGQGTTVTVSSASPTSPKVFPLSLDSTPQDGNVVVACLVQGFFPQEPLSVTWSESGQGVTARNFPPSQDASGDLYTTSSQLTLPATQCPDGKSVTCHVKHYTNPSQDVTVPCRVPPPPPCCHPRLSLHRPALEDLLLGSEANLTCTLTGLRDASGATFTWTPSSGKSAVQGPPERDLCGCYSVSSVLPGSAQPWNHGETFTCTAAHPELKTPLTATLSKSGNTFRPEVHLLPPPSEELALNELVTLTCLARGFSPKDVLVRWLQGSQELPREKYLTWASRQEPSQGTTTFAVTSILRVAAEDWKKGDTFSCMVGHEALPLAFTQKTIDRLAGK
light: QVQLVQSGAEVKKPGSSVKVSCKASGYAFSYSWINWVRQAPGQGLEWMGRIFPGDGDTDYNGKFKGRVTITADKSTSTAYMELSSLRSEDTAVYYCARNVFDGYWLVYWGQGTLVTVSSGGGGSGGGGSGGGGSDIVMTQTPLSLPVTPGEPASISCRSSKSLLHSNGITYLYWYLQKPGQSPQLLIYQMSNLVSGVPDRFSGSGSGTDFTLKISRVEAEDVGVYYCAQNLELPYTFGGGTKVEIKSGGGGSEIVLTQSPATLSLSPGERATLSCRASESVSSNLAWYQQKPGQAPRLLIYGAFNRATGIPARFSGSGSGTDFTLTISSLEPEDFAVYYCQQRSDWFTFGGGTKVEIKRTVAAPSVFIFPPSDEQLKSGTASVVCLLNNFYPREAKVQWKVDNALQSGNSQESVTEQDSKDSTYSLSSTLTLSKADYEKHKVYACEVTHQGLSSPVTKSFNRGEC
notes: Tetravalent homodimer; Obinituzumab (CD20) scFv on the 2.3D11 light chain; also called bispecific #6

Key:
CD20 = target: T1, CD20; assay: flow cytometry, bispecific supernatant on SKBR3-CD20 cells, without or after pre-block of CD47 with m9, detection anti-IgA PE, GeoMFI; SKBR3 WT (CD20-) panel as comparison
Experimental: (§1) After the pre-block the IgA antibodies were applied as described above. Samples were analyzed on a BD Canto II, and data has been analyzed using FlowJo (BD).
Cells were fixed and measured by FACS.

CD47 [1] = target: T2, CD47 (human, UniProt Q08722 19-323); assay: flow cytometry on SKBR3 WT cells (CD20-/CD47+), detection anti-IgA PE, GeoMFI
T2 construct: whole, on cells; also called Cluster of Differentiation 47; human CD47
T2 sequence (Q08722 19-323): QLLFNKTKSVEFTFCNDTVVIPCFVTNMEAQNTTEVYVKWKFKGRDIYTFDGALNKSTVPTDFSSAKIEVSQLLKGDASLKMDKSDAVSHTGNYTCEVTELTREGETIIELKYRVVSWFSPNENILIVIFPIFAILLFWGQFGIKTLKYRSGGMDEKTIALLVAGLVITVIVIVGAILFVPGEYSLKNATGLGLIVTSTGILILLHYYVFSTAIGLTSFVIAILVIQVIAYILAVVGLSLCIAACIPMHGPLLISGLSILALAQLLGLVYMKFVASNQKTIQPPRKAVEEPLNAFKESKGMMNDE
Experimental: as §1

CD47 [2] = target: T2, CD47; assay: flow cytometry, bispecific supernatant on SKBR3 WT (CD20-/CD47+) and SKBR3-CD20 cells, without or after pre-block of CD47 with mIgG1 anti-CD47 PerCP-Cy5.5, detection anti-IgA PE, GeoMFI
Experimental: as §1
Cells were fixed and measured by FACS.

CD47 [3] = target: T2, CD47; assay: flow cytometry on human erythrocytes (CD235a+), bispecific supernatant, detection anti-human IgA, % positive cells
Experimental: A Histopaque/ficoll isolation was performed to separate the erythrocytes from the PMN/PBMC. Plasma, PBMC, ficoll, histopaque and PMN have been discarded. The remaining pellet of erythrocytes were washed in PBS, spun for 5 minutes at 2400 rpm and pellet was resuspended in 5 mL PBS. […] Dilutions are done in FACS buffer (1% BSA in PBS). Incubated for 30 minutes at RT in the dark, excess unbound antibody was washed away with FACS buffer. 40 uL was added in FACS buffer diluted detection antibody (goat F(ab)′2 anti-human IgA-FITC (Southern Biotech; dilution 1:100), incubated for 30 minutes at RT in the dark, excess unbound antibody was washed away with FACS buffer. Samples were fixed by adding 1% PFA to pelleted cells. Measure on Canto II (BD), gating on CD235-positive events.

CD47 [4] = target: T2, CD47; assay: flow cytometry on SKBR3 WT cells (CD20-/CD47+), detection anti-IgA PE
Experimental: as §1

Binder	binding result (CD20)	further results
B1	binds	
B2		binding result (CD47 [1]): binds
B3	binds	binding result (CD47 [2]): no binding
B4	binds	binding result (CD47 [3]): binds
B5		binding result (CD47 [4]): no binding (tested: 1 ug/mL (from paragraph 462, not on the sheet))
B6	binds	
B7	binds	
B8	binds	
